Reference: patent publication US9969795

Molecular target: recombinant influenza HA3-protein (from H3N2, Wyoming, March 2003, Sino Biological Inc.) (Influenza virus H3N2 (Wyoming, March 2003))
Assay: SPR imaging (IBIS MX96), antibody captured on anti-human-IgG chip, HA3 1 ug/ml; global 1:1 fit in Scrubber2

B1: AT10_004 (antibody, V domains shown)
VH: QVQLVQSGAEVRKPGASVKVSCKASGYTFTRHGISWVRQAPGQGLEWMGWISAYTGDTDYAQKFQGRVTMTTDTSTNTAYMELRSLRSDDAAVYYCARLRLQGEVVVPPSQSNWFDPWGQGTLVTVSS
VL: EIVLTQSPATLSLYPGERATLSCRASQSVSRYLAWYQQKPGQAPRLLIYDASNRATGIPARFSGSGSGTDFTLTISSLEPEDFAVYYCQQRSNWLKITFGQGTRLEIKG
Kd: 0.07 nM
koff: 1e-06 s⁻¹
kon: 14000 M⁻¹ s⁻¹
